{"source": "patent US20250304644A1", "about": "“PEPTIDES TRIPLE AGONISTS OF GIP, GLP-1 AND GLP-2” (BAINAN BIOTECH APS, priority 2021, published 2025)", "binders": {"B1": {"name": "Compound 3 (peptide)", "peptide": "H[Aib]DGTFISDYATILDNLAARDFINWLIQTKITK(Decanoyl)-OH", "modifications": "N-terminus assumed", "SMILES": "CCCCCCCCCC(=O)NCCCC[C@H](NC(=O)[C@@H](NC(=O)[C@@H](NC(=O)[C@H](CCCCN)NC(=O)[C@@H](NC(=O)[C@H](CCC(N)=O)NC(=O)[C@@H](NC(=O)[C@H](CC(C)C)NC(=O)[C@H](Cc1c[nH]c2ccccc12)NC(=O)[C@H](CC(N)=O)NC(=O)[C@@H](NC(=O)[C@H](Cc1ccccc1)NC(=O)[C@H](CC(=O)O)NC(=O)[C@H](CCCNC(=N)N)NC(=O)[C@H](C)NC(=O)[C@H](C)NC(=O)[C@H](CC(C)C)NC(=O)[C@H](CC(N)=O)NC(=O)[C@H](CC(=O)O)NC(=O)[C@H](CC(C)C)NC(=O)[C@@H](NC(=O)[C@@H](NC(=O)[C@H](C)NC(=O)[C@H](Cc1ccc(O)cc1)NC(=O)[C@H](CC(=O)O)NC(=O)[C@H](CO)NC(=O)[C@@H](NC(=O)[C@H](Cc1ccccc1)NC(=O)[C@@H](NC(=O)CNC(=O)[C@H](CC(=O)O)NC(=O)C(C)(C)NC(=O)[C@@H](N)Cc1c[nH]cn1)[C@@H](C)O)[C@@H](C)CC)[C@@H](C)O)[C@@H](C)CC)[C@@H](C)CC)[C@@H](C)CC)[C@@H](C)O)[C@@H](C)CC)[C@@H](C)O)C(=O)O"}, "B2": {"name": "Compound 4 (peptide)", "peptide": "H[Aib]DGTFISDYSTILDLLAARDFINWLIQTKITK(Decanoyl)-NH2", "modifications": "N-terminus assumed", "SMILES": "CCCCCCCCCC(=O)NCCCC[C@H](NC(=O)[C@@H](NC(=O)[C@@H](NC(=O)[C@H](CCCCN)NC(=O)[C@@H](NC(=O)[C@H](CCC(N)=O)NC(=O)[C@@H](NC(=O)[C@H](CC(C)C)NC(=O)[C@H](Cc1c[nH]c2ccccc12)NC(=O)[C@H](CC(N)=O)NC(=O)[C@@H](NC(=O)[C@H](Cc1ccccc1)NC(=O)[C@H](CC(=O)O)NC(=O)[C@H](CCCNC(=N)N)NC(=O)[C@H](C)NC(=O)[C@H](C)NC(=O)[C@H](CC(C)C)NC(=O)[C@H](CC(C)C)NC(=O)[C@H](CC(=O)O)NC(=O)[C@H](CC(C)C)NC(=O)[C@@H](NC(=O)[C@@H](NC(=O)[C@H](CO)NC(=O)[C@H](Cc1ccc(O)cc1)NC(=O)[C@H](CC(=O)O)NC(=O)[C@H](CO)NC(=O)[C@@H](NC(=O)[C@H](Cc1ccccc1)NC(=O)[C@@H](NC(=O)CNC(=O)[C@H](CC(=O)O)NC(=O)C(C)(C)NC(=O)[C@@H](N)Cc1c[nH]cn1)[C@@H](C)O)[C@@H](C)CC)[C@@H](C)O)[C@@H](C)CC)[C@@H](C)CC)[C@@H](C)CC)[C@@H](C)O)[C@@H](C)CC)[C@@H](C)O)C(N)=O"}, "B3": {"name": "Compound 7 (peptide)", "peptide": "H-H[Aib]DGTFISDYSTILENLAARDFINWLIQTKITK(Decanoyl)-NH2", "SMILES": "CCCCCCCCCC(=O)NCCCC[C@H](NC(=O)[C@@H](NC(=O)[C@@H](NC(=O)[C@H](CCCCN)NC(=O)[C@@H](NC(=O)[C@H](CCC(N)=O)NC(=O)[C@@H](NC(=O)[C@H](CC(C)C)NC(=O)[C@H](Cc1c[nH]c2ccccc12)NC(=O)[C@H](CC(N)=O)NC(=O)[C@@H](NC(=O)[C@H](Cc1ccccc1)NC(=O)[C@H](CC(=O)O)NC(=O)[C@H](CCCNC(=N)N)NC(=O)[C@H](C)NC(=O)[C@H](C)NC(=O)[C@H](CC(C)C)NC(=O)[C@H](CC(N)=O)NC(=O)[C@H](CCC(=O)O)NC(=O)[C@H](CC(C)C)NC(=O)[C@@H](NC(=O)[C@@H](NC(=O)[C@H](CO)NC(=O)[C@H](Cc1ccc(O)cc1)NC(=O)[C@H](CC(=O)O)NC(=O)[C@H](CO)NC(=O)[C@@H](NC(=O)[C@H](Cc1ccccc1)NC(=O)[C@@H](NC(=O)CNC(=O)[C@H](CC(=O)O)NC(=O)C(C)(C)NC(=O)[C@@H](N)Cc1c[nH]cn1)[C@@H](C)O)[C@@H](C)CC)[C@@H](C)O)[C@@H](C)CC)[C@@H](C)CC)[C@@H](C)CC)[C@@H](C)O)[C@@H](C)CC)[C@@H](C)O)C(N)=O"}, "B4": {"name": "Compound 15 (peptide)", "peptide": "H[Aib]DGTFISDYSTILDNIAARDFINWLIQTKITK(Decanoyl)-NH2", "modifications": "N-terminus assumed", "SMILES": "CCCCCCCCCC(=O)NCCCC[C@H](NC(=O)[C@@H](NC(=O)[C@@H](NC(=O)[C@H](CCCCN)NC(=O)[C@@H](NC(=O)[C@H](CCC(N)=O)NC(=O)[C@@H](NC(=O)[C@H](CC(C)C)NC(=O)[C@H](Cc1c[nH]c2ccccc12)NC(=O)[C@H](CC(N)=O)NC(=O)[C@@H](NC(=O)[C@H](Cc1ccccc1)NC(=O)[C@H](CC(=O)O)NC(=O)[C@H](CCCNC(=N)N)NC(=O)[C@H](C)NC(=O)[C@H](C)NC(=O)[C@@H](NC(=O)[C@H](CC(N)=O)NC(=O)[C@H](CC(=O)O)NC(=O)[C@H](CC(C)C)NC(=O)[C@@H](NC(=O)[C@@H](NC(=O)[C@H](CO)NC(=O)[C@H](Cc1ccc(O)cc1)NC(=O)[C@H](CC(=O)O)NC(=O)[C@H](CO)NC(=O)[C@@H](NC(=O)[C@H](Cc1ccccc1)NC(=O)[C@@H](NC(=O)CNC(=O)[C@H](CC(=O)O)NC(=O)C(C)(C)NC(=O)[C@@H](N)Cc1c[nH]cn1)[C@@H](C)O)[C@@H](C)CC)[C@@H](C)O)[C@@H](C)CC)[C@@H](C)CC)[C@@H](C)CC)[C@@H](C)CC)[C@@H](C)O)[C@@H](C)CC)[C@@H](C)O)C(N)=O"}, "B5": {"name": "Compound 8 (peptide)", "peptide": "H-H[Aib]DGTFISDYSTILDNLAAREFINWLIQTKITK(Decanoyl)-NH2", "SMILES": "CCCCCCCCCC(=O)NCCCC[C@H](NC(=O)[C@@H](NC(=O)[C@@H](NC(=O)[C@H](CCCCN)NC(=O)[C@@H](NC(=O)[C@H](CCC(N)=O)NC(=O)[C@@H](NC(=O)[C@H](CC(C)C)NC(=O)[C@H](Cc1c[nH]c2ccccc12)NC(=O)[C@H](CC(N)=O)NC(=O)[C@@H](NC(=O)[C@H](Cc1ccccc1)NC(=O)[C@H](CCC(=O)O)NC(=O)[C@H](CCCNC(=N)N)NC(=O)[C@H](C)NC(=O)[C@H](C)NC(=O)[C@H](CC(C)C)NC(=O)[C@H](CC(N)=O)NC(=O)[C@H](CC(=O)O)NC(=O)[C@H](CC(C)C)NC(=O)[C@@H](NC(=O)[C@@H](NC(=O)[C@H](CO)NC(=O)[C@H](Cc1ccc(O)cc1)NC(=O)[C@H](CC(=O)O)NC(=O)[C@H](CO)NC(=O)[C@@H](NC(=O)[C@H](Cc1ccccc1)NC(=O)[C@@H](NC(=O)CNC(=O)[C@H](CC(=O)O)NC(=O)C(C)(C)NC(=O)[C@@H](N)Cc1c[nH]cn1)[C@@H](C)O)[C@@H](C)CC)[C@@H](C)O)[C@@H](C)CC)[C@@H](C)CC)[C@@H](C)CC)[C@@H](C)O)[C@@H](C)CC)[C@@H](C)O)C(N)=O"}}, "note": "Where no end group is shown, it is not given here. [ ]: non-standard residue; d: D form. The star is where a group is joined. Decanoyl = CCCCCCCCCC(=O)*; Aib = CC(C)(N)C(=O)O", "data": [{"molecular_target": "T1, human GIPR (glucose-dependent insulinotropic polypeptide receptor) (human, UniProt P48546 22-466)", "T1 sequence (looked up)": "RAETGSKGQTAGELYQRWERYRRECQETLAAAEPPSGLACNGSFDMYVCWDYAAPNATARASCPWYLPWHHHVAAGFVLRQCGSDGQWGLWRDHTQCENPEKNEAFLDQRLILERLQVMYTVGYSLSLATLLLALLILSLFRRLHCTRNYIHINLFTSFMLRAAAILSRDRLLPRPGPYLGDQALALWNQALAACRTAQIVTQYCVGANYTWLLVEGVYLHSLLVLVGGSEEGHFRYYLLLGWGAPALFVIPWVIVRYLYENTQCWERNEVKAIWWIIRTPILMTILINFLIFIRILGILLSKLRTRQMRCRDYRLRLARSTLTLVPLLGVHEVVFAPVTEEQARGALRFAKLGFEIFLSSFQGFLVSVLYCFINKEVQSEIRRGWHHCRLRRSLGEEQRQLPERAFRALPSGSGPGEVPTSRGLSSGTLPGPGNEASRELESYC", "assay": "cell-based or functional assay", "units": {"EC50 (nM) GIPR": "nM"}, "values": [{"binder": "B1", "Efficacy GIPR": 80, "pEC50 GIPR": 9.2}, {"binder": "B2", "EC50 (nM) GIPR": 1.12, "Efficacy GIPR": 102, "pEC50 GIPR": 9}, {"binder": "B3", "EC50 (nM) GIPR": 0.794, "Efficacy GIPR": 96, "pEC50 GIPR": 9.1}, {"binder": "B4", "EC50 (nM) GIPR": 0.794, "Efficacy GIPR": 98, "pEC50 GIPR": 9.1}, {"binder": "B5", "EC50 (nM) GIPR": 1.12, "Efficacy GIPR": 99, "pEC50 GIPR": 9}, {"binder": "HXDGTFISDYSTILDNLAARDFINWLIQTKITK (Aib at position 2; K33 acylated with C10, K(C10); C-terminus -OH)", "note": "[Compound 2]", "Efficacy GIPR": 99}]}, {"molecular_target": "human GLP-1R (glucagon-like peptide-1 receptor) (human, UniProt P43220 24-463)", "assay": "cell-based or functional assay", "units": {"EC50 (nM) GLP-1R": "nM"}, "values": [{"binder": "B1", "EC50 (nM) GLP-1R": 1.78, "Efficacy GLP-1R": 94, "logEC50 GLP-1R": 8.8}, {"binder": "B2", "EC50 (nM) GLP-1R": 25.1, "Efficacy GLP-1R": 82, "logEC50 GLP-1R": 7.6}, {"binder": "B4", "EC50 (nM) GLP-1R": 4.73, "Efficacy GLP-1R": 90, "logEC50 GLP-1R": 8.3}, {"binder": "B5", "EC50 (nM) GLP-1R": 2.24, "Efficacy GLP-1R": 98, "logEC50 GLP-1R": 8.7}, {"binder": "HXDGTFISDYSTILDNLAARDFINWLIQTKITK (Aib at position 2; K33 acylated with C10, K(C10); C-terminus -OH)", "note": "[Compound 2]", "Efficacy GLP-1R": 84}]}, {"molecular_target": "T2, human GLP-2R (glucagon-like peptide-2 receptor) (human, UniProt O95838 1-553)", "T2 sequence (looked up)": "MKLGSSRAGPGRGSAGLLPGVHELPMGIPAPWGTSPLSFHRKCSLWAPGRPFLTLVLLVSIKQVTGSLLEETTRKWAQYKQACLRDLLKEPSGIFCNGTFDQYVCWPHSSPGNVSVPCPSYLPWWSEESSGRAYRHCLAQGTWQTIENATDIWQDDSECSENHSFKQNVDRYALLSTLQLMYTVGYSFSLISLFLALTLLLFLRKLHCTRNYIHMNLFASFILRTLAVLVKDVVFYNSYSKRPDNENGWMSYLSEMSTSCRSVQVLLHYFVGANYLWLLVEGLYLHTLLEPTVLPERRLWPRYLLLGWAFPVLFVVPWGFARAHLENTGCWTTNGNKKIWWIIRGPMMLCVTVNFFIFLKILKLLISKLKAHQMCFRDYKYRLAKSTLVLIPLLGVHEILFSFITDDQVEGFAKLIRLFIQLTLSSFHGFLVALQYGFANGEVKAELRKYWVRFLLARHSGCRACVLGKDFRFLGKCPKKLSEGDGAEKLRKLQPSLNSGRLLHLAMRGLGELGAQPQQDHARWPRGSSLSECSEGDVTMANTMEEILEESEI", "assay": "cell-based or functional assay", "units": {"EC50 (nM) GLP-2R": "nM"}, "values": [{"binder": "B1", "EC50 (nM) GLP-2R": 2.8, "Efficacy GLP-2R": 101, "logEC50 GLP-2R": 8.6}, {"binder": "B2", "EC50 (nM) GLP-2R": 28.2, "Efficacy GLP-2R": 92, "logEC50 GLP-2R": 7.6}, {"binder": "B3", "EC50 (nM) GLP-2R": 12.6, "Efficacy GLP-2R": 97, "logEC50 GLP-2R": 7.9}, {"binder": "HXDGTFISDYSTILDNLAARDFINWLIQTKITK (Aib at position 2; K33 acylated with C10, K(C10); C-terminus -OH)", "note": "[Compound 2]", "Efficacy GLP-2R": 105}]}]}
